Kd data for 1 molecule are collected here from article PMC8795117, “Structures and function of a tailoring oxidase in complex with a nonribosomal peptide synthetase module” (Nature Communications, 2022).

Where “and” joins values, the source holds several entries; their conditions need not be identical. Equal entries are not always repeated.

This experiment concerns the target T1, BmdC (Thermoactinomyces vulgaris F-5595).
T1 construct: BmdC, FMN-dependent oxidase of the bacillamide pathway, Thermoactinomyces vulgaris F-5595 (WP_022737638.1); RREL domain, 45-residue loop, Ox domain (residues 142-325); Co-purifies with FMN; also called oxidase BmdC; dimeric BmdC; source: E. coli BL21(DE3), purified (IMAC, CBP column, TEV cleavage, gel filtration)
Briefly: ITC; 600 μM BmdB A2 injected into 60 μM dimeric BmdC, 25 °C, 50 mM Tris-HCl pH 7.5, 200 mM NaCl, 1 mM TCEP; fitted with a binding model using a stoichiometry of 1; triplicate. To be noted: both partners purified.

B1: BmdB_A2 (domain or fragment)
chain: YNATAEPIPAATLHQLFIDQAQRTPDQVAVVFEQEWLTYSELDQRSNQVARFLQSRGIGRGDRVGVLAKRQVETIINLMAVLKAGAAYVPIDPDHPYERQTYILENSSCKILLDSDLYETMEISSYADGDLTPVAEPEDTAYVIYTSGSTGRPKGVIITHQAASNTIQDINRKFEVNEEDRIIGISSMCFDLSVYDIFGTLSAGATLVMIRDPRDMRELVRTVERRGITIWNTVPAIMDLALDHVGSHFENISLRLVLLSGDWIPLPLPAKINRHFPVADVISLGGATEASIWSIYWPIEQVEANWKSIPYGKPLANQTYYVLNYDQKMCPVGVIGDLYIGGAGLAQGYLNDDQKTKDAFIMHPEFGPIYKTGDCGRMRPEGYIEFLGRQDYQVKIQGYRVELEEISHCLLTYPDVDQAVVIDQTDERGMKFLVGYVVAQQEIDEKALRKHLMEHLPEYMIPAHLVHLEQLPLTPNGKLDRKALPVPKKQRNAEKFV
One may read the Kd as a measure of binding affinity in units of concentration. A higher Kd goes with weaker binding. On to B1, for which the Kd is ~75 nM and 44 to 118 nM.
